Experimental data from patent publication US20240369485A1, “FLUORESCENT SENSOR FOR MONITORING CALCIUM DYNAMICS” (priority 2021, published 2024).
Where two headings read alike, the source gives them in different places.

Columns and labels:
ER Ca^2+ = test: Quantitative basal/resting ER Ca^2+ measurement using R-CatchER; assay type: cell-based
HeLa cells [1] = assay type: cell-based
Method: Cell culture and transfection. C2C12, HEK293 and HeLa cells were cultured and maintained in Dulbecco's modified Eagle's medium (DMEM) supplemented with 10% fetal bovine serum (FBS) and high glucose (4.5 g/L) at 37° C. R-CatchER, G-CatchER2, G-CEPIA1er, R-CEPIA1er or R-CatchER with GFP-CaSR (wt and mutations) were transfected into cells using Lipofectamine 3000 (Life Technologies), following the manufacturer's instructions. Seed cells onto sterilized 22 mm×40 mm glass microscope slides in 6 cm dishes until about 70% confluency, the day of transfection. The next day, 2 μg of plasmid were mixed with transfection reagent in the reduced serum media Opti-MEM for 4-6 h at 37° C. The media was then replaced with 3 mL of fresh DMEM and incubated at 37° C. for 48 h.
HILO imaging of R-CatchER, G-CatchER2, R-CEPIA1er, and G-CEPIA1er. Samples were mounted in a perfusion chamber and imaged using a customized optical microscope based on a Nikon TiE inverted microscope equipped with a 100×TIRF objective (N.A. 1.49, Nikon) and a highly sensitive electron multiplying charge-coupled device (EMCCD) camera (Andor Ixon Ultra 888). A fiber-coupled 488 nm or 561 nm laser (LBX-488/LCX-561, Oxxius) was first collimated and then focused to the back focal plane of the TIRF objective using an achromatic optical lens of 200 mm focal length (AC254-200-A, Thorlabs). To achieve HILO imaging, the incident angle of the excitation laser was adjusted to be slightly smaller than the critical angles at the cell-coverslip interface through translational movement the optical axis of the incident light beam by a motorized stage (SGSP-20-20, Sigma Koki). An efficient excitation volume of few micrometers was obtained under HILO illumination. A quad-band filter set (TRF89901v2, Chroma) was used for filtering out the fluorescence background. Fluorescence images of samples were recorded at 1 Hz as the concentration of ER Ca^2+ was perturbed by perfusion of 3 μM Thapsigargin, 0.5 mM 4-cmc, 1 mM 4-cmc, 100 μM ATP, or 100 μM histamine.

[2] = Quantum yield, extinction coefficient, and brightness determination; assay type: physicochemical; design: key to Brightness: extinction coefficient × quantum yield
Method: Quantum yield, extinction coefficient, and brightness determination. The quantum yield values of all the variants were determined by measuring the emitted fluorescence intensities and absorbance intensities of the chromophore at different protein concentrations. The wildtype was used as a reference to calculate quantum yield. Brightness was defined as a visual perception in which a source appears to emit or reflect a given amount of light, which was obtained by multiplying the extinction coefficient and the quantum yield.

HeLa cells [3] = test: Confocal imaging of R-CatchER with ER-tracker green; assay type: cell-based
Method: Confocal imaging of R-CatchER. HeLa cells were transfected with R-CatchER two days before fixing. Cells were fixed with 3.7% Thermo Scientific™ Pierce™ 16% Formaldehyde (w/v), methanol-free, and permeabilized with 0.1% Triton X-100. Cells were then stained with ER-Tracker green (Invitrogen) and with ProLong gold antifade mountant with DAPI (Invitrogen) for staining the nucleus. Confocal imaging then was performed using a Zeiss LSM 700 confocal laser scanning microscope (CLSM).

[4] = In vitro kinetics by stopped flow spectrofluorometer; assay type: binding
Method: In vitro kinetics by stopped flow spectrofluorometer. The kinetics were determined by a Hi-Tech SF-61 stopped-flow spectrofluorometer equipped with the mercury-Xe lamp (10 mm path length, dead time of 2.2 ms) at 20° C. For R-CatchER and its variant or R-CEPIA1er, excitation was at 569 nm and a long-pass 590 nm filter was used. For G-CEPIA1er, a 530 nm long-pass filter was set with excitation at 498 nm, while for MCD1, excitation at 587 nm and a long-pass 600 nm filter were applied. For association kinetics, R-CatchER, R-CatchER variant, MCD1, R-CEPIA1er, and G-CEPIA1er were mixed with the same buffer containing an increasing concentration of Ca^2+. For disassociation kinetics, R-CatchER, R-CatchER variant, MCD1, R-CEPIA1er, and G-CEPIA1er in buffers with concentration of Ca^2+ at Kd, were mixed with 5 mM EGTA or buffer. The raw data were fitted using either single exponential for R-CatchER, R-CatchER variant, and MCD1, or double exponential equations for R-CEPIA1er and G-CEPIA1er.

[5] = Calcium (Ca^2+) binding assay: fluorescence/absorbance titration of purified protein
Method in brief: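 Purified mApple, EGFP and mCherry variants at 10 μM (mApple with 5 μM EGTA in 10 mM Tris, pH 7.4, triplicate) were titrated stepwise with Ca^2+. Fluorescence was followed across the titration, with absorbance spectra of Ca^2+-free and Ca^2+-loaded forms taken before and after. Affinity came from a 1:1 binding fit.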

Ca^2+ induced fluorescence changes upon addition of other ions (metal selectivity) ([5]; 1 mM Mg^2+, 150 mM KCl, 150 mM NaCl): insensitive
Fmax/Fmin ([5]; EGFP and mApple variants): 4.22
Aholo/Aapo ([5]; absorbance at 569): 4.33 (569)
fluorescence dynamic range ΔF/F ([5]; in vitro, Ca^2+ binding): 4.22±0.04
Kd ([5]; in vitro, purified protein, read-out: Kd for Ca^2+ binding): 350 ± 30 µM
Hill coefficient ([5]; purified indicator, Ca^2+ binding): 0.98
Dynamic Range ([5]; purified indicator, Ca^2+ induced fluorescence): 4.2
Kd ([5]; purified indicator, Ca^2+, read-out: Kd): 361 µM
B1: R-CatchER: red genetically encoded Ca^2+ indicator, mApple A145E/K198D/R216D, SEQ ID NO: 12 (protein)
chain: EENNMAIIKEFMRFKVHMEGSVNGHEFEIEGEGEGRPYEAFQTAKLKVTKGGPLPFAWDILSPQFMYGSKVYIKHPADIPDYFKLSFPEGFRWERVMNFEDGGIIHVNQDSSLQDGVFIYKVKLRGTNFPSDGPVMQKKTMGWEESEERMYPEDGALKSEIKKRLKLKDGGHYAAEVKTTYKAKKPVQLPGAYIVDIDLDIVSHNEDYTIVEQYEDAEGRHSTGGMDELYK
Basal [Ca^2+]ER (ER Ca^2+; 6-23 cells, 0.5 mM Ca^2+): 735.0 ± 66.7 µM
Basal [Ca^2+]ER (ER Ca^2+; CaSR L173P, 1.8 mM Ca^2+): 893.6 ± 67.6 µM
Basal [Ca^2+]ER (ER Ca^2+; CaSR P221L, 1.8 mM Ca^2+): 477.7 ± 49.4 µM
Basal [Ca^2+]ER (ER Ca^2+; CaSR P221Q, 1.8 mM Ca^2+): 674.6 ± 50.2 µM
Basal [Ca^2+]ER (ER Ca^2+; CaSR S820F, 1.8 mM Ca^2+): 406.1 ± 41.4 µM
Basal [Ca^2+]ER (ER Ca^2+; GFP-CaSR, 0.5 mM Ca^2+): 487.1 ± 48.2 µM
resting ER Ca^2+ concentration (ER Ca^2+; HEK293 cells): 0.68 ± 0.22 mM
resting ER Ca^2+ concentration (ER Ca^2+; HeLa cells): 0.59 ± 0.16 mM
Basal [Ca^2+]ER (ER Ca^2+; TT cells, 0.5 mM Ca^2+): 539.0 ± 65.9 µM
fluorescence decrease ΔF/F (HeLa cells [1]; 3 μM Thapsigargin (Tg), 0 mM Ca^2+): 0.69±0.07
half decay time of the first peak of ER Ca^2+ oscillations (HeLa cells [1]; 100 μM histamine): 1.8 ± 0.1 s
half rise time of the first peak of ER Ca^2+ oscillations (HeLa cells [1]; 100 μM histamine): 7.3 ± 0.1 s
Brightness ([2]; Apo): 0.13 ± 0.02
Extinction coefficient ([2]; Apo): 44000 M⁻¹ cm⁻¹
Fluorescence quantum yield ([2]; Apo): 0.30 ± 0.02
Brightness ([2]; Holo): 0.30 ± 0.03
Extinction coefficient ([2]; Holo): 60000 M⁻¹ cm⁻¹
Fluorescence quantum yield ([2]; Holo): 0.50 ± 0.03
ε (holo) (×10^4) (M^−1 cm^−1) ([2]; Holo): 6 ×10^4 M^−1 cm^−1
ε (apo) (×10^4) (M^−1 cm^−1) ([2]; apo): 4 ×10^4 M^−1 cm^−1
Φ (apo) ([2]; apo, quantum yield): 0.30
Φ (holo) ([2]; holo, quantum yield): 0.50
Pearson's Coefficient of colocalisation with ER-tracker green (HeLa cells [3]): 0.83
kon ([4]; Ca^2+ association): >7e+06 M⁻¹ s⁻¹
koff ([4]; Ca^2+ dissociation): >2000 s⁻¹
Ca^2+ association rate kon ([4]; stopped-flow, dead time 2.2 ms, 20° C.): ≥ 7e+06 M⁻¹ s⁻¹
